Assay results reported in the RNAGym collection of RNA variant scans (doi:10.1073/pnas.2313332121).

B1: TPR t1 (parent)
chain: GACCAAUCUGCCCUCAGAGCUCGAGAACAUCUUCGGAUGCAGAGGAGGCAGGCUUCGGUGGCGCGAUAGCGCCAACGUCCUCAACCUCCAAUGCAUCCCACCACAUGAUGAUGCCUGAAGAGCCUUGGUUUUUUG

Variants of: B1
Test: polymerase ribozyme fitness, log enrichment relative to wild type (log ratio); higher = more active; in vitro selection for triplet polymerase activity
Procedure, shortened: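 Streptavidin-bead capture of gel-excised extended constructs, followed by RT-PCR, closed a single triplicate in vitro selection round. That round began by annealing PCR-built, transcribed mutant libraries of each subunit of a heterodimeric triplet polymerase ribozyme with a biotinylated primer, the partner subunit and triplets, then incubating them frozen at −7 °C. After Illumina sequencing of inputs and outputs, genotypes needed ≥10 input reads and ≥1 read per output. Fitness is the base-2 logarithm of genotype enrichment over wild-type enrichment, using inverse-variance-weighted replicate averages.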

Variant	polymerase ribozyme fitness (log ratio)
C8U G42A C88U	-0.816
C94A G117U U129A	-4.44
C12U A18C C34U G120C	-4.87
C4A A6C C11G C40U G110U	-4.57
G19U G107A G120A U125A	-7.29
G19U C56A G113C	-3.24
A24G A27G	-4.03
G60U A83C G117A	-2.26
C62G C86A	-3.17
A27U A43U G48A C88A C123A	-4.03
C4U G17C G48A G69C G120C	-4.5
U7G G77C	0.424
A29G A46U G52U G57U U87G C115G	-4.9
A84C C124A	1.76
A16U G69A C82G C97A C114U U133G	-5.51
A27U A66C A83U	-4.44
U92G C123A	-2.78
C53G C56A G117C	-4.49
U9C G19A U96A A121G U132A	-1.11
G93A G117C	-3.87
U59G G60A C70G C115A A121C	-4.99

Variant	polymerase ribozyme fitness (log ratio)
G39C C98A	-5.08
G48C G77A U130G	-2.05
C20G G60A G120C	-4.56
G45A C53A C86A U133A	-1.69
A46G U78A U112G	0.172
G48C C49G C72U C97U U116G	-2.86
C104U C123A	0.201
U9A U87A	1.16
C64U U130C	-0.0426
C8U G60C G61C C72A C101U	-1.33
C13A G61A A66U A121U U129G	-0.637
C13A C56U	-1.43
C11G C31U G52A U96G G120C	-5.5
G42A A66U C79U	-3.79
G44C G93U	-2.85
G45U C89U U92A U106A U133G	-3.32
C56U C80U C101U A121C	0.686
C8A C12U C40A	-0.186
A50U	-0.868
C70U U78C U129G	-1.5
C31U G47U U112C G120C	-4.82

Variant	polymerase ribozyme fitness (log ratio)
C8A A46G C101U	-0.289
C12U G17U C28U G39A G42C C56U C70G U106A U109C U112C	-6.21
C13U C98A C115U	-5.17
C20G A50C	-6.14
U7A C40G	-0.25
C40G C72U C102U U116G C124U	-4.29
C12U G44C C82G A103G G117C	-6.32
C73U C79U C104U	-0.0392
U7A A50U G77A	-1
G42A G45U A68G C82U C89U A90U A118G	-4.62
C70G C88A	-4.74
C13U C34A C70A U106A C114A	-6.64
C15U G52A G58A C88U C115U	-4.34
G47C U54G G58C G69U	1.13
C12A U130C U131C	-0.148
U38G C49A U54C G69U C104A	-0.856
G23U G58A G60C G120C	-7.23
C8U G117U U126C	-3.25
C89A A105C	-4.64
A50C G71U U130A	-0.942
C40U C123U	0.0584

Variant	polymerase ribozyme fitness (log ratio)
A41C C89U	-0.432
C3A C12A	-1.53
A24G G117C G128A	-6.86
U81G A95U	-6.29
G77U C89U A91U U116C G120C G135A	-2.85
G47U C49G C70U U87C A100C	-3.16
A27C G61U	-3.27
A43C U129G	-3.27
U33A A46C G69U U78G	-2.03
A90U G93A U112C	-0.194
G44U C56A	-1.54
C20G C123G	-2.95
A37U C72U A83G C86U	0.0963
G61U U87C	0.519
C40U G51A G60U C82G U96A U116G	-6.02
A2C C4A	-1.3
U55G C72G A100C A111U	-4.23
C85U G120A	-0.267
U59C U92G C114G U125G	-4.63
C11G A24G A37C G42A U92C A118U	-3.62
A27G G36U G42C G120A	-5.26
